According to PMC3515335, “CDK2 Regulates HIV-1 Transcription by Phosphorylation of CDK9 on Serine 90” (Retrovirology, 2012):

Target: T1, Flag-tagged CDK9 S90A (human, UniProt P50750 1-372, S90A)
T1 construct: also called Flag-CDK9 S90A
Experiment: co-IP; Flag-CDK9 (WT or S90A) precipitated with anti-Flag antibodies from lysates of 293T cells co-transfected with cyclin T1, 48 hrs post-transfection; whole cell lysis buffer (50 mM Tris-HCl pH 7.5, 0.5 M NaCl, 1% NP-40, 0.1% SDS); IP 2 hrs at 4°C in TNN buffer (50 mM Tris-HCl pH 7.5, 150 mM NaCl, 1% NP-40); immunoblot for Hexim1, CDK9 and cyclin T1
Settings: partners not purified

T1 sequence (P50750 whole entry S90A): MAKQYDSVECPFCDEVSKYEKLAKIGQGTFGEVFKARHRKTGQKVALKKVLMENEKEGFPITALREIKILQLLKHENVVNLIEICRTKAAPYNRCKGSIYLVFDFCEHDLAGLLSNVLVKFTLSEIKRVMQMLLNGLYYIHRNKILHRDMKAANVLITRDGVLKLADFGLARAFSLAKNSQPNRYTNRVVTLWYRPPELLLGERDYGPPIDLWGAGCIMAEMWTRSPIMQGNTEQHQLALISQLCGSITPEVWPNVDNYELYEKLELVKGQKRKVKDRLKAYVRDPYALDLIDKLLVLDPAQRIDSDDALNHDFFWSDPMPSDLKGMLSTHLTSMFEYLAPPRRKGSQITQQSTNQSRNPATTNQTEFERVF

- HEXIM1 co-precipitated, relative to WT CDK9: ~50 % less
B1: HEXIM1 (natural protein, human (endogenous in 293T), UniProt O94992 1-359, looked up)
chain: MAEPFLSEYQHQPQTSNCTGAAAVQEELNPERPPGAEERVPEEDSRWQSRAFPQLGGRPGPEGEGSLESQPPPLQTQACPESSCLREGEKGQNGDDSSAGGDFPPPAEVEPTPEAELLAQPCHDSEASKLGAPAAGGEEEWGQQQRQLGKKKHRRRPSKKKRHWKPYYKLTWEEKKKFDEKQSLRASRIRAEMFAKGQPVAPYNTTQFLMDDHDQEEPDLKTGLYSKRAAAKSDDTSDDDFMEEGGEEDGGSDGMGGDGSEFLQRDFSETYERYHTESLQNMSKQELIKEYLELEKCLSRMEDENNRLRLESKRLGGDDARVRELELELDRLRAENLQLLTENELHRQQERAPLSKFGD
notes: source: endogenous, 293T lysate
